Consider two molecules from PMC4516936 (Toxins, 2015).

In general, Kd refers to the equilibrium constant for the complex coming apart. As usually defined, the kon is the second-order rate constant of association. Low readings indicate slow association, high ones fast association.

Assay [1] has as its target cholera toxin A2 CTA2 (Vibrio cholerae) (UniProt P01555). Put plainly: SPR. The settings on record: cited from earlier work.
The target in assay [2] is cholera toxin A1 subunit (CTA1), reduced, free (UniProt P01555 19-212). Put plainly: SPR. The settings on record: both partners purified.
Sequence of cholera toxin A1 subunit (CTA1), reduced, free (P01555 19-212): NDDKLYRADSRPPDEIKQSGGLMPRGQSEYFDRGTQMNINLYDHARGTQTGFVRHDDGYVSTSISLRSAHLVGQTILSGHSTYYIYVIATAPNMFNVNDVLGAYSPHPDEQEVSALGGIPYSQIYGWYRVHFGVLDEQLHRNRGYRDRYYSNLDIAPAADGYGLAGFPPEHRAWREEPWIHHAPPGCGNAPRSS

For the molecule “cholera toxin A1 CTA1 (from UniProt P01555)”, in assay [1], the equilibrium dissociation constant (Kd) is 0.053 µM.

B1: CTA2/CTB5 complex (complex)
chain 1: MSNTCDEKTQSLGVKFLDEYQSKVKRQIFSGYQSDIDTHNRIKDEL
chain 2: TPQNITDLCAEYHNTQIYTLNDKIFSYTESLAGKREMAIITFKNGAIFQVEVPGSQHIDSQKKAIERMKDTLRIAYLTEAKVEKLCVWNNKTPHAIAAISMAN
notes: copies: + 5
As for B1, the kon in assay [2] came to 521 M⁻¹ s⁻¹.
